Assay results reported in patent publication US6902918B1, “Oxygenase enzymes and screening method” (California Institute of Technology, priority 1998, dated 2005).
Changes are numbered by the printed parent chain.

Key:
[1] = Fluorescence image analysis of colonies on agar plates with naphthalene and hydrogen peroxide; type: cell-based, E. coli BL21(DE3); details: naphthalene as substrate
[2] = Whole cell naphthalene hydroxylation assay, P450cam in E. coli with added HRP, 96-well plate; type: cell-based; details: TB and 1.3 mM ALA, 100 μL volume
[3] = type: cell-based, E. coli; details: for Relative rate towards naphthalene (generation of fluorescence per time): whole cells, 96-well plate
[4] = 96-well plate whole cell assay of P450cam variants, generation of fluorescence per time, 3-phenylpropionate; type: cell-based, E. coli; details: for Relative rate towards 3-phenylpropionate (generation of fluorescence per time): whole cells, 96-well plate
Description: (§1) For the microtitre plate assay, the cells (grown in 4 ml TB/amp (100 ug/ml) media) were centrifuged for 10 min at 4° C. After the supernatant solution was removed, the harvested cells were carefully resuspended in 1 ml buffer solution (dibasic phosphate, 100 mM, pH 9.0). Then, 20 μl aliquots were placed into a Nunc fluorescence microplate. The total 180 μl reaction mixture was made up of 100 μl dibasic sodium phosphate buffer (100 mM, pH9.0), 20 μl ethanol, 10 μl substrate stock (4.5 mM coumarin in 10% ethanol, or 2 mM 3-phenylpropionate in 10% ethanol, 2 mM naphthalene in pure ethanol), and 10 μl hydrogen peroxide stock solution (50 mM H2O2 stock). The other reaction conditions are those described in EXAMPLE 2. The fluorescence was measured as a function of time, and the relative rates presented in Table 2 are the slopes of that measurement (RFU/min).

[5] = 96-well plate whole cell assay of P450cam variants, generation of fluorescence per time, coumarin; type: cell-based, E. coli; details: whole cells
Description: as §1

[6] = ABTS assay; reported by Sigma; cited from earlier work
[7] = HRP peroxidase activity test with ABTS and H2O2, expression in E. coli; type: cell-based, E. coli BL21(DE3)
Description: The PCR products were ligated back into the pET-22b(+) vector which was transformed into the BL21(DE3) cells by electroporation. Cell growth and expression was carried out in either 96-well or 384-well microplates in LB medium at 30° C. Peroxidase activity tests were performed with H2O2 and ABTS (32).
IPTG was omitted in all HRP expression experiments, unless otherwise specified. Peroxidase activity tests for HRP were performed with a classical peroxidase assay, ABTS and hydrogen peroxide (26). Fifteen μl of cell suspension was mixed with 140 μl of ABTS/H2O2 (2.9 mM ABTS, 0.5 mM H2O2, pH 4.5) in microplates, and the activity was determined with a SpectraMax plate reader (Molecular Devices, Sunnyvale, Calif.) at 25° C. A unit of HRP is defined as the amount of enzyme that oxidizes 1 μmole of ABTS per min at the assay conditions.

[8] = Colorimetric coupling of naphthol by laccase or HRP in cell solutions; type: biochemical; details: 1-naphthol 100 uM
Description: Laccase was purchased from Sigma Chemicals as a crude acetone powder from the […] Rhus vernificera. […] Type II HRP (RZ approximately 2.0) and all other chemicals were purchased from Sigma. Fluorescence readings were taken with a Perkin-Elmer HTS 7000 plate reading fluorimeter. Excitation and emission wavelengths were 360 nm and 465 nm, respectively.
Experiments were performed at 25° C. in the wells of opaque, white Nunc 96-well plates with a total liquid of 200 uL. Except where stated otherwise, each well contained 10% pure ethanol to improve the solubility of substrates and products. Where HRP was used for comparison, approximately 2.3 units of HRP and 5 mM H2O2 were in each well. […] Tris buffer was not used because it increases background fluorescence. Except where stated, results are given from conditions at pH 9.0, which were either the best results or barely distinguishable from the other conditions.
In order to evaluate laccase in a useful whole cell assay to identify the formation of hydroxylated aromatic compounds by oxidative enzymes (such as cytochrome P450cam and toluene dioxygenase), laccase was added to solutions containing cells, naphthalene, and naphthol. P450cam was expressed in E. coli strain BL21(DE3) using plasmid pCWori+. BL21(DE3) cells with and without the expressed protein were grown in Terrific Broth and after 8 hours were induced with 1 mM IPTG for 24 hours. […]

[9] = Stability of mutant HRP at 4° C.

B1: WT: native cytochrome P450cam monooxygenase of P. putida, SEQ. ID. NO. 2 (protein)
chain: TTETIQSNANLAPLPPHVPEHLVFDFDMYNPSNLSAGVQEAWAVLQESNVPDLVWTRCNGGHWIATRGQLIREAYEDYRHFSSECPFIPREAGEAYDFIPTSMDPPEQRQFRALANQVVGMPVVDKLENRIQELACSLIESLRPQGQCNFTEDYAEPFPIRIFMLLAGLPEEDIPHLKYLTDQMTRPDGSMTFAEAKEALYDYLIPIIEQRRQKPGTDAISIVANGQVNGRPITSDEAKRMCGLLLVGGLDTVVNFLSFSMEFLAKSPEHRQELIERPERIPAACEELLRRFSLVADGRILTSDYEFHGVQLKKGDQILLPQMLSGLDERENACPMHVDFSRQKVSHTTFGHGSHLCLGQHLARREIIVTLKEWLTRIPDFSIAPGAQIQHKSGIVSGVQALPLVWDPATTKAV
modifications: P. Putida
[1]
  colony fluorescence in digital scan: ~320 fluorescence units
[2]
  total activity (whole cell naphthalene hydroxylation): 430 RFU/min

B2: M7-4H (protein)
chain: B1 chain with E331K
modifications: Mutant M7-4H
[3]
  Relative rate towards naphthalene (generation of fluorescence per time): 84.1 RFU/min
[4]
  Relative rate towards 3-phenylpropionate (generation of fluorescence per time): 42.8 RFU/min
[5]
  Relative rate towards coumarin (generation of fluorescence per time): 11.5 RFU/min

B3: M7-8H (protein)
chain: B1 chain with C242F, E331K
modifications: Mutant M7-8H
[3]
  Relative rate towards naphthalene (generation of fluorescence per time): 53.1 RFU/min
[4]
  Relative rate towards 3-phenylpropionate (generation of fluorescence per time): 35.4 RFU/min
[5]
  Relative rate towards coumarin (generation of fluorescence per time): 12.8 RFU/min

B4: M7-6H (protein)
chain: B1 chain with R280L, E331K
modifications: Mutant M7-6H
[3]; from Table 2 data
  increased activity over the wild type, naphthalene hydroxylation: 9.4 fold
[3]
  Relative rate towards naphthalene (generation of fluorescence per time): 86.7 RFU/min
[4]; another series of experiments
  increase in activity on 3-phenylpropionate compared to wild-type: 3.2 fold
[4]
  Relative rate towards 3-phenylpropionate (generation of fluorescence per time): 43.6 RFU/min
[5]
  Relative rate towards coumarin (generation of fluorescence per time): 14.1 RFU/min

B5: HRP: horseradish peroxidase; purchased from Sigma (type II) or expressed from synthetic gene in pETpelBHRP (protein, listed as Escherichia coli)
chain: MQLTPTFYDNSCPNVSNIVRDTIVNELRSDPRIAASILRLHFHDCFVNGCDASILLDNTTSFRTEKDAFGNANSARGFPVIDRMKAAVESACPRTVSCADLLTIAAQQSVTLAGGPSWRVPLGRRDSLQAFLDLANANLPAPFFTLPQLKDSFRNVGLNRSSDLVALSGGHTFGKNQCRFIMDRLYNFSNTGLPDPTLNTTYLQTLRGLCPLNGNLSALVDFDLRTPTIFDNKYYVNLEEQKGLIQSDQELFSSPDATDTIPLVRSFANSTQTFFNAFVEAMDRMGNITPLTGTQGQIRLNCRVVNSNS
[6]
  total activity of 1 mg of highly purified HRP: 1,000 units
[7]; 1 mM IPTG
  peroxidase activity in cells induced with IPTG: no peroxidase activity above background
[7]; no IPTG
  activity against ABTS in cells not induced with IPTG: weak but measurable activity
[8]
  time for color change from light yellow to dark brown: approximately 1 minute

B6: HRP1A6: horseradish peroxidase mutant, Asn255 changed to Asp, SEQ. ID. NO. 17 (protein, listed as Escherichia coli)
chain: B5 chain
[9]
  stability: stable for up to a week
[7]; ABTS assay
  total activity: greater than 100 units/L
[7]; as little as 5 μM of IPTG added
  peroxidase activity on addition of IPTG: markedly decreased activity
[7]; estimated from ABTS activity
  concentration of active HRP: ~100 µg/L
[7]; first generation, no IPTG added
  higher peroxidase activity than the parent clone: 10-14 fold
[7]; judged by the ABTS activity
  share of HRP activity found in the LB culture medium: greater than 95%
